Assay results as given in the DeepSol protein solubility set.

assay: soluble on expression in E. coli; label from the status in PepcDB or PDB records

For “MWNMLIVAMCLALLGCLQAQELQGHVSIILLGATGDLAKKYLWQGLFQLYLDEAGRGHSFSFHGAALTAPKQGQELMAKALESLSCPKDMAPSHCAEHKDQFLQLSQYRQLKTAEDYQALNKDIEAQLQHAGLREAGRIFYFSVPPFAYEDIARNINSSCRPGPGAWLRVVLEKPFGHDHFSAQQLATELGTFFQEEEMYRVDHYLGKQAVAQILPFRDQNRKALDGLWNRHHVERVEIIMKETVDAEGRTSFYEEYGVIRDVLQNHLTEVLTLVAMELPHNVSSAEAVLRHKLQVFQALRGLQRGSAVVGQYQSYSEQVRRELQKPDSFHSLTPTFAGVLVHIDNLRWEGVPFILMSGKALDERVGYARILFKNQACCVQSEKHWAAAQSQCLPRQLVFHIGHGDLGSPAVLVSRNLFRPSLPSSWKEMEGPPGLRLFGSPLSDYYAYSPVRERDAHSVLLSHIFHGRKNFFITTENLLASWNFWTPLLESLAHKAPRLYPGGAENGRLLDFEFSSGRLFFSQQQPEQLVPGPGPAPMPSDFQVLRAKYRESPLVSAWSEELISKLANDIEATAVRAVRRFGQFHLALSGGSSPVALFQQLATAHYGFPWAHTHLWLVDERCVPLSDPESNFQGLQAHLLQHVRIPYYNIHPMPVHLQQRLCAEEDQGAQIYAREISALVANSSFDLVLLGMGADGHTASLFPQSPTGLDGEQLVVLTTSPSQPHRRMSLSLPLINRAKKVAVLVMGRMKREITTLVSRVGHEPKKWPISGVLPHSGQLVWYMDYDAFLG”, which “soluble on expression in E. coli” value is on record?
The value was “soluble”.

With “MAHHHHHHMPTYVGKEAPFFKAEAVFGDNSFGEVNLTQFIGKKYVLLYFYPLDFTFVCPSEIIALDKALDAFHERNVELLGCSVDSKYTHLAWKKTPLAKGGIGNIKHTLLSDITKSISKDYNVLFDDSVSLRAFVLIDMNGIVQHLLVNNLAIGRSVDEILRIIDAIQHHEKYGDVCPANWQKGKVSMKPSEEGVAQYLSTL” as the sequence, how does the “soluble on expression in E. coli” value read?
Its value is “not soluble”.

For “MSLCVFLTSEVNMGLFNFVKDAGEKLWDAVTANHDKDDQAKKVQEHLNKTGIPDTDKVNVQIADGKATVTGDGLSQEAKEKILVAVGNIAGISSVDDQVKTTTPAAESQFYTVKSGDTLSAISKQVYGNANLYNKIFEANKPMLKSPEKIYPGQVLRIPEEGHHHHHH”, which “soluble on expression in E. coli” value is on record?
Its value is “not soluble”.

Which “soluble on expression in E. coli” value does the source give for “MGSDKIHHHHHHVARLVASVDKYIYTVNGDTILSHQFISNNAQFGNGIEVSQDNHFPWSGEIHYEINNPNQLAFKLGIRIPSWSRNKFGLKINGKKIDLASEDGFIYINVNDESLTVDLSLDMNTKFMRSSNKVSSNYGKIAVQRGPIVYAAEETDNKAPLWNYKVETDKEPKYHYNKDLLEGVGTITVKSIAEEISPEDGPLYSTIDEATANYETDLKLIPYYAWANREEGQMQVWLNK” here?
The value was “not soluble”.

Which “soluble on expression in E. coli” value does the source give for “MVADMAGSSEKFKIVLKPVTAEAVPSGDAVKVTTGGVQIDVYPEREAGGPERGLTPLGLLAASLASCEVLMSRLVGRMLGYNGFDVRVAVTADVQVAEGLRSLSIRYVFKGVDIDTANLIVSKVKELCPVYNSLVRNGVSVEENVEVE” here?
Its value is “soluble”.

With “MSLTTSPDARWTRRRTEKQRRLEQVRTLADGVVLPTDKIVAALEALLVSGDRVVLEGNNQKQADFLSRALAKVDPGKVHDLHMIMPSVGRAEHLDLFEQGIARKLDFSFAGTQSLRISQLLEDGLLEIGAIHTYIELYSRLVVDLIPNVVLAAGFMADRAGNIYTGPSTEDTPALIEPAAFSDGIVIVQVNQLVDDVSELPRVDIPASWVDFVVVADKPFYIEPLFTRDPRHIKPVHVLMAMMAIRGIYEKHNVQSLNHGIGFNTAAIELILPTYGESLGLKGKICRNWTLNPHPTLIPAIESGWVESVHCFGTELGMENYIAARPDVFFTGRDGSLRSNRQLCQLAGQYAVDLFIGATLQVDGDGHSSTVTRGRLAGFGGAPNMGHDPRGRRHATPAWLDMRQQNESGPDAYLERGKKLVVQMVETFQEGGKPTFVETLDAVEVAKKSGMPLAPIMIYGDDVTHLLTEEGIAYLYKARSLEERQAMIAAVAGVTVIGLRHNPKDTARMRREGLIALPEDLGIRRTDASREGHHHHHH” as the sequence, how does the “soluble on expression in E. coli” value read?
Its value is “not soluble”.

With “MSLKLVLHSAKRASAPYRVRIGLNLKGLAFELRPVDLVANAHQGEAYRALNAQALVPTLEVDGRPLTQSLAILEWLDETYPAHPLLPTDAFDRATVRAMAEIIACDIHPLNNLRILRQLTALEIDEPARNAWVARWIQDGFSALEPMIARHGQGYAFGDAPGLVDCLLVPQVFNANRFNVDLSPFPALEAAAAHARAHPAIAAAHPDHHPEEGHHHHHH” as the sequence, how does the “soluble on expression in E. coli” value read?
The value was “soluble”.

For “GMFAGSIPMYIRVVSITAQSKLQFDMTVTYFENVWSPKVISLGAISAEFVQSNENSGMYIIHYPDKQTAISVFDKIKPEVDEVRTQNRIQITEGKRLFRVD”, which “soluble on expression in E. coli” value is on record?
The value was “soluble”.

With “MKRLIGLVIVALVLLAACGSNNDKKVTIGVASNDTKAWEKVKELAKKDDIDVEIKHFSDYNLPNKALNDGDIDMNAFQHFAFLDQYKKAHKGTKISALSTTVLAPLGIYSDKIKDVKKVKDGAKVVIPNDVSNQARALKLLEAAGLIKLKKDFGLAGTVKDITSNPKHLKITAVDAQQTARALSDVDIAVINNGVATKAGKDPKNDPIFLEKSNSDAVKPYINIVAVNDKDLDNKTYAKIVELYHSKEAQKALQEDVKDGEKPVNLSKDEIKAIETSLAK” as the sequence, how does the “soluble on expression in E. coli” value read?
Its value is “soluble”.

For “MTMSLEVFEKLEAKVQQAIDTITLLQMEIEELKEKNNSLSQEVQNAQHQREELERENNHLKEQQNGWQERLQALLGRMEEV”, which “soluble on expression in E. coli” value is on record?
The value was “soluble”.

Which “soluble on expression in E. coli” value does the source give for “MAATTKKPEIAAQHKPQTAAAAVASPATGAQPGHYVDPAVASAAGVNNVPAQHQAPGSPAQGYGAAADIGGLTTQPTAISAGTSSIYSTATHSGSAAAQGMAAAQGGSAQKIIPAVSSVYSAPIQPSQPQPVAAPVAVPVAAQVPPEQHSENRQPAAVPVPQPEQRAAAQPATNAGATVEGREGEGRSLTLAAFFAGAAKKRLPKMIESGTAGNTEVAALSGAADGSMGIALSGRSMMSEEFDDAHLDEEDDQPNGLMKLASLSGLTRVSPNGLFLQTDHVEVGCFKPELVRMIKDVERHYNSPAIVTSGYRPPKGIRQGSKHYTCDAADIQIKGVSKWELATYLRSLPDRGGVGTYCHTESVHMDTGEARDWNWRCRRTAARK” here?
Its value is “not soluble”.

With “MAAQIPESDQIKQFKEFLGTYNKLTETCFLDCVKDFTTREVKPEETTCSEHCLQKYLKMTQRISMRFQEYHIQQNEALAAKAGLLGQPR” as the sequence, how does the “soluble on expression in E. coli” value read?
The value was “soluble”.

Which “soluble on expression in E. coli” value does the source give for “MGKFMMEKFVQTVSSVNYNKGVFSLYFVGQDQKNMAHGVMAESDNDLELKQVVHMPASGFMYMVSMIKNMLEDPRMEAEFNKLVAAGFLPAGDATANSAEDAAAEEKTAAKKRPAQVKK” here?
Its value is “not soluble”.

Which “soluble on expression in E. coli” value does the source give for “MYKPITFSLKYIFKTAGKVEVQGREKLPEGGPYVVACTHTSFMDVLMLATGMYPTEIHYMAKKELFEGKFKNWFFKNVNAFPVDRANPGPSTLKIPSRLLKEGKVVGIFPSGTRSTEDVSLKAGAVTIAMRSNVPLIPAAYIGPSSVKELIKGKRAQLIFGDPIQIDAEEQIDRKTAMKMMTDQLNEKFEGLKEALQSNQK” here?
The value was “not soluble”.

Which “soluble on expression in E. coli” value does the source give for “MTSKVGPVALKTFREKLGPELLEVFDKSYKSFTDVQVLSGTHLLNLSDVVVESPTGSGKTLAFVLPMMRMIQNAKLQPADIGALILSPSRELCSQIVSVIQPFAEKLNLTVETVTGGQKVDKNIKMFKNKNVNILVATPGRLFQIIQHEKTLIARKMRTLQLLVIDEADRFNEIQFEDHMREILSCIPKQRRTGLFSATQVKEEDDLMVFGLRNAKQVKVAQERNSAAPSTLKNYYVECRADEKTSVCLEFIRQRTDKKILIFFPSCNSVRYFYKIFERCLGKRPLFAVHGKCSNPHRASQIKAFSDSTNGVMISTDVMARGIDISDIDWVIQFDLPKHSSWFVHRAGRTARCGREGNALILIASEQLAYVNFLDNHEKVKLDEIKVPTNNSRKSEELRQKMIKIQVSDRAILEAGTRAFVSHVESYAKHDCHLICSLDDLNVVGLANSYALLRLPKMRELSQRKDLDMFDRSAIETSEIKYADVKLEANRETVMKEKHEKKVETLAAKDKKRREKEARKLKKMGGRFRNGGGTGRKAEEKKALKRKAEEEDDAQNDIRLLKRIKRGKLSKKEIKDVL” here?
Its value is “not soluble”.

For “MSLAKYKKLFEPYTLNNDVVLKNRLVVAPLTIYDSGPDGELTPAAHNFWRNRFRGFGTWIVPFTNVHPSGIGFESPNAFHEENLPTLKAYATISHEQGAKAIIQLAHAGIHADPAMTKGYDLMGPSNLPYMGVRAMTDSEVREMVNAFAYATELAISAGLDGVEIHGANGWLIQQFVSETYNQRTDHWGGSVEKRFNFPLAIIDAIEAVRHKYHRPDFIVGYRFSPEEPGEVGLTMTETLALVDRLLDKPLQYIHISLWNFYKKIRRGGDVKKTRMEAVHDRINGRLPFIGVGDLFAEEQGLKAFNTGWADLLAVGGSVELNPNLIELIKTGQEDQIQSEFDWNEMDSYRFTPAMLYGTLAGNAMFPKVKEGHHHHHH”, which “soluble on expression in E. coli” value is on record?
The value was “soluble”.

Which “soluble on expression in E. coli” value does the source give for “MGSDKIHHHHHHGTVSWNLREMLAHAEETRKLMPICMDVRAIMATIQRKYKGIKIQEGIVDYGVRFFFYTSKEPVASIITKLNSLNEPLVTMPIGYVTHGFNLEEAARCMRSLKAPAVVSVSSPDAVTTYNGYLTSSSKTSEEHFVETVSLAGSYRDWSYSGQRTELGVEFLKRGDKIVYHTLESPVEFHLDGEVLSLDKLKSLLS” here?
The value was “soluble”.

Which “soluble on expression in E. coli” value does the source give for “MKLLQRGVALALLTTFTLASETALAYEQDKTYKITVLHTNDHHGHFWRNEYGEYGLAAQKTLVDGIRKEVAAEGGSVLLLSGGDINTGVPESDLQDAEPDFRGMNLVGYDAMAIGNHEFDNPLTVLRQQEKWAKFPLLSANIYQKSTGERLFKPWALFKRQDLKIAVIGLTTDDTAKIGNPEYFTDIEFRKPADEAKLVIQELQQTEKPDIIIAATHMGHYDNGEHGSNAPGDVEMARALPAGSLAMIVGGHSQDPVCMAAENKKQVDYVPGTPCKPDQQNGIWIVQAHEWGKYVGRADFEFRNGEMKMVNYQLIPVNLKKKVTWEDGKSERVLYTPEIAENQQMISLLSPFQNKGKAQLEVKIGETNGRLEGDRDKVRFVQTNMGRLILAAQMDRTGADFAVMSGGGIRDSIEAGDISYKNVLKVQPFGNVVVYADMTGKEVIDYLTAVAQMKPDSGAYPQFANVSFVAKDGKLNDLKIKGEPVDPAKTYRMATLNFNATGGDGYPRLDNKPGYVNTGFIDAEVLKAYIQKSSPLDVSVYEPKGEVSWQ” here?
The value was “soluble”.

With “MGSSHHHHHHSSGLVPRGSHMFANDATFEIKKCDLHRLEEGPPVTTVLTREDGLKYYRMMQTVRRMELKADQLYKQKIIRGFCHLCDGQEACCVGLEAGINPTDHLITAYRAHGFTFTRGLSVREILAELTGRKGGCAKGKGGSMHMYAKNFYGGNGIVGAQVPLGAGIALACKYNGKDEVCLTLYGDGAANQGQIFEAYNMAALWKLPCIFICENNRYGMGTSVERAAASTDYYKRGDFIPGLRVDGMDILCVREATRFAAAYCRSGKGPILMELQTYRYHGHSMSDPGVSYRTREEIQEVRSKSDPIMLLKDRMVNSNLASVEELKEIDVEVRKEIEDAAQFATADPEPPLEELGYHIYSSDPPFEVRGANQWIKFKSVS” as the sequence, how does the “soluble on expression in E. coli” value read?
Its value is “soluble”.

For “KRKEMISARLGDGLSYLYMASATLKKYEDEGRQQGDLNFVHYAVQYCLYNAAKSLNEAYANFPVKYVGGVLKGLLFPLGNHFDKPSDELSVSIAEAMMTPGVQRDRLTHLCYIGKSENDSVGLMENAFLAMYDVKPLERKLMKAAKDGKVARKGLLPDRLQQALDAGVLTEQEVEKITAADQLRYKAIQVDHFSHDFSEVRTDSPKKSHLNPAA”, which “soluble on expression in E. coli” value is on record?
Its value is “not soluble”.

Which “soluble on expression in E. coli” value does the source give for “IAQQTEETVVEVETVTGFGANDAILDIRSIDEQEDKPLKVEGVEVVSLPFYKLSTKFGDLDQSKTWLLWCERGVMSRLQALYLREQGFSNVKVYR” here?
The value was “not soluble”.

Which “soluble on expression in E. coli” value does the source give for “MSLNVVGYVRLSRDEDKENYSSIITQKNIIEEYSKNKNWTVNRIYVDDNCSGYTFERPEFLKMMYEIKERKIDVIVAKDLSRIGRNNGKVLVFIDKLKEKGIRLILVEEATGGLDLLEDNYDILGIKTWYNEMYVKDISRKIRASMHLKQKKGKEGHHHHHH” here?
The value was “soluble”.
